Assay results: patent US20200317768A1 (published 2020)

T1: cynomolgus monkey FcγRIIa3 extracellular domain, C-terminal His-tag (cynomolgus monkey)
T1 construct: also called cyno FcγRIIa3; cynoFcgRIIa3; not shown: His-tag added to C-terminus
T1 chain: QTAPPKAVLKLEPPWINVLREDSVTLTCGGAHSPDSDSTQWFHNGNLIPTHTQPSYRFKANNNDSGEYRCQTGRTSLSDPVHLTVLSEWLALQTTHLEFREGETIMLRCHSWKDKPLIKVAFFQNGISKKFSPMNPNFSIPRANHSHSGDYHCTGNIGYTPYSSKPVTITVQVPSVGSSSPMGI

T2: cynomolgus monkey FcγRIIa1 extracellular domain, C-terminal His-tag (cynomolgus monkey)
T2 construct: also called cyno FcγRIIa1; cynoFcgRIIa1; not shown: His-tag added to C-terminus
T2 chain: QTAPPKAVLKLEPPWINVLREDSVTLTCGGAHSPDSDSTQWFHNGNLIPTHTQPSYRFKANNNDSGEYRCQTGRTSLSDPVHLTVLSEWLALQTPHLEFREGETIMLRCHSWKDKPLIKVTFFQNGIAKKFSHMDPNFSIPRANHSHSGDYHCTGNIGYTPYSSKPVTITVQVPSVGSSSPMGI

T3: human FcγRIIaR extracellular domain, C-terminal His-tag (human, UniProt P12318 34-217)
T3 construct: also called human FcγRIIa (type R); FcgRIIaR; not shown: His-tag added to C-terminus
T3 chain: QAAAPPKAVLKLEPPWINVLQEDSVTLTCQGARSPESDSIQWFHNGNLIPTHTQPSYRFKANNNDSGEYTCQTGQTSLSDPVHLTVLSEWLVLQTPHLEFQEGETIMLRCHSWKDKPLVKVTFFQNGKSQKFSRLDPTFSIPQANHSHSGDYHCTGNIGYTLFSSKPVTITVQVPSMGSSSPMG

T4: human FcγRIIaH extracellular domain, C-terminal His-tag (human, UniProt P12318 34-217)
T4 construct: also called human FcγRIIa (type H); FcgRIIaH; not shown: His-tag added to C-terminus
T4 sequence: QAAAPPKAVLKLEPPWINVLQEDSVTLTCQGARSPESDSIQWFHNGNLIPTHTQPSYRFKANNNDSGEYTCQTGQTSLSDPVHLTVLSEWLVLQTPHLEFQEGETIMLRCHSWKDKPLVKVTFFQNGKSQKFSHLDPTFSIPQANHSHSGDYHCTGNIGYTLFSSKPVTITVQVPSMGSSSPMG

T5: cynomolgus monkey FcγRIIb extracellular domain, C-terminal His-tag (cynomolgus monkey)
T5 construct: also called cyno FcγRIIb; cynoFcγRIIb; not shown: His-tag added to C-terminus
T5 chain: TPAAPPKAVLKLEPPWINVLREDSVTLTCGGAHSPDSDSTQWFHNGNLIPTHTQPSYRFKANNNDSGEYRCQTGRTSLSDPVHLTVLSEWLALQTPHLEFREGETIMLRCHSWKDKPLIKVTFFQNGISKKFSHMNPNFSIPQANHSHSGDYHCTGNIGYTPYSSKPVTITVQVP

T6: cynomolgus monkey FcγRIIa2 extracellular domain, C-terminal His-tag (cynomolgus monkey)
T6 construct: also called cyno FcγRIIa2; cynoFcgRIIa2; not shown: His-tag added to C-terminus
T6 chain: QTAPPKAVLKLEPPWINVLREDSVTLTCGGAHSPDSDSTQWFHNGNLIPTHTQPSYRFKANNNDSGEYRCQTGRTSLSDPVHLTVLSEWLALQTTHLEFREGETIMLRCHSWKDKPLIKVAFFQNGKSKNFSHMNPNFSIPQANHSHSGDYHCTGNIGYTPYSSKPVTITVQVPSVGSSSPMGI

T7: human FcγRIIb extracellular domain, C-terminal His-tag (human, UniProt P31994 43-217)
T7 construct: also called humanFcgRIIb; not shown: His-tag added to C-terminus
T7 sequence: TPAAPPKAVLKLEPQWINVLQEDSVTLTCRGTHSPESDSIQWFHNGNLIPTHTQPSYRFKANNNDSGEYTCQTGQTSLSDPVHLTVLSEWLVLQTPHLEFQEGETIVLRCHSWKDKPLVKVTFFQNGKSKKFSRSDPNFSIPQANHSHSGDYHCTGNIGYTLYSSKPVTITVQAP


Tests used:
[1] = molecular target: T1, cynomolgus monkey FcγRIIa3 …; experiment: SPR (BIACORE), antibody captured, FcγR analyte
Procedure: (§1) The kinetic analysis of interactions between these antibodies and FcγR was carried out using BIACORE® T200 or BIACORE® 4000 (GE Healthcare). HBS-EP+ (GE Healthcare) was used as the running buffer, and the measurement temperature was set to 25° C. A chip produced by immobilizing Protein A. Protein A/G or mouse anti-human IgG kappa light chain (BD Biosciences) onto a Series S Sensor Chip CM4 or CM5 (GE Healthcare) by the amine-coupling method was used. […] After the measurement, the antibody captured on the chip was washed off by allowing reaction with 10 mM glycine-HCl, pH1.5 and 25 mM NaOH so that the chip was regenerated and used repeatedly. The sensorgrams obtained as measurement results were analyzed by the 1:1 Langmuir binding model using the BIACORE® Evaluation Software to calculate the binding rate constant ka (L/mol/s) and dissociation rate constant kd (l/s), and the dissociation constant KD (mol/L) was calculated from these values. […] Regarding such interactions, KD values were calculated using the following 1:1 binding model described in BIACORE® T100 Software Handbook BR1006-48 Edition AE.
(§2) The behavior of interacting molecules according to the 1:1 binding model on BIACORE® can be described by Equation 1: Req=C·R max/(KD+C)+RI, wherein, Req is a plot of steady-state binding levels to analyte concentration. C is concentration, RI is bulk refractive index contribution in the sample, and Rmax is analyte binding capacity of the surface. When this equation is rearranged, KD can be expressed as Equation 2: KD=C·Rmax/(Req−RI)−C. KD can be calculated by substituting the values of Rmax, RI, and C into Equation 1 or Equation 2. From the current measurement conditions, RI=0, C=2 μmol/L can be used.

[2] = molecular target: T2, cynomolgus monkey FcγRIIa1 …; experiment: SPR (BIACORE), antibody captured, FcγR analyte
Procedure: as §1, §2

[3] = molecular target: T3, human FcγRIIaR extracellular domain, …; experiment: SPR (BIACORE), antibody captured, FcγR analyte
Procedure: as §1, §2

[4] = molecular target: T4, human FcγRIIaH extracellular domain, …; experiment: SPR (BIACORE); KD of SG1 / KD of variant
[5] = molecular target: T5, cynomolgus monkey FcγRIIb extracellular …; experiment: SPR (BIACORE); KD of SG1 / KD of variant
[6] = molecular target: T6, cynomolgus monkey FcγRIIa2 …; experiment: SPR (BIACORE); KD of SG1 / KD of variant
[7] = molecular target: T3, human FcγRIIaR extracellular domain, …; experiment: SPR (BIACORE); KD of SG1 / KD of variant
[8] = molecular target: T7, human FcγRIIb extracellular domain, …; experiment: SPR (BIACORE); KD of SG1 / KD of variant

| Binder | Kd [1] [nM] | Kd [2] [nM] | Kd [3] [nM] | KD fold (SG1 = 1) [4] [fold] | KD fold (SG1 = 1) [5] [fold] | KD fold (SG1 = 1) [6] [fold] | KD fold (SG1 = 1) [7] [fold] | KD fold (SG1 = 1) [8] [fold] |
| --- | --- | --- | --- | --- | --- | --- | --- | --- |
| MS_M103205H795-SG1/M103202L889-SK1 (antibody, human IgG1, kappa, Parent antibody with SG1 human heavy chain constant region; also called MS1032LO06-SG1) heavy: not shown light: DIVMTQSPATLSLSPGERATLSCTSSQSVYHANWLSWFQQKPGQPPKLLIYWASTLAYGVPSRFSGSGSGTDFTLTISSLQPEDAATYYCAGGYGGGRYAFGQGTKVEIKRTVAAPSVFIFPPSDEQLKSGTASVVCLLNNFYPREAKVQWKVDNALQSGNSQESVTEQDSKDSTYSLSSTLTLSKADYEKHKVYACEVTHQGLSSPVTKSFNRGEC | 1700 | 3200 | 1100 | 1 | 1 | 1 | 1 | 1 |
| M103205H795-MY201 / M103202L889-SK1 (antibody, human IgG1, kappa, CH with G236N/H268D/A330K against SG1 (EU numbering); also called MS1032LO06-MY201) heavy: QVTLKESGPVLVKPTETLTLTCTVSGIDLSHDDISWVRQAPGKGLEWVGIISYAGSTYYASWAKGRLTISKDTSKNQVVLTMTNMDPVDTATYYCARGVPAYSHGGDLWGQGTLVTVSSASTKGPSVFPLAPSSKSTSGGTAALGCLVKDYFPEPVTVSWNSGALTSGVHTFPAVLQSSGLYSLSSVVTVPSSSLGTQTYICNVNHKPSNTKVDKKVEPKSCDKTHTCPPCPAPELLNGPSVFLFPPKPKDTLMISRTPEVTCVVVDVSDEDPEVKFNWYVDGVEVHNAKTKPREEQYNSTYRVVSVLTVLHQDWLNGKEYKCKVSNKALPKPIEKTISKAKGQPREPQVYTLPPSREEMTKNQVSLTCLVKGFYPSDIAVEWESNGQPENNYKTTPPVLDSDGSFFLYSKLTVDKSRWQQGNVFSCSVMHEALHNHYTQKSLSLSP light: DIVMTQSPATLSLSPGERATLSCTSSQSVYHANWLSWFQQKPGQPPKLLIYWASTLAYGVPSRFSGSGSGTDFTLTISSLQPEDAATYYCAGGYGGGRYAFGQGTKVEIKRTVAAPSVFIFPPSDEQLKSGTASVVCLLNNFYPREAKVQWKVDNALQSGNSQESVTEQDSKDSTYSLSSTLTLSKADYEKHKVYACEVTHQGLSSPVTKSFNRGEC | 3900 | 1400 | 1900 | 0.8 | 4.2 | 3.6 | 0.6 | 4.2 |
| M103205H795-MY101 / M103202L889-SK1 (antibody, human IgG1, kappa, CH with G236N/H268E/A330K/P396M against SG1 (EU numbering); also called MS1032LO06-MY101) heavy: QVTLKESGPVLVKPTETLTLTCTVSGIDLSHDDISWVRQAPGKGLEWVGIISYAGSTYYASWAKGRLTISKDTSKNQVVLTMTNMDPVDTATYYCARGVPAYSHGGDLWGQGTLVTVSSASTKGPSVFPLAPSSKSTSGGTAALGCLVKDYFPEPVTVSWNSGALTSGVHTFPAVLQSSGLYSLSSVVTVPSSSLGTQTYICNVNHKPSNTKVDKKVEPKSCDKTHTCPPCPAPELLNGPSVFLFPPKPKDTLMISRTPEVTCVVVDVSEEDPEVKFNWYVDGVEVHNAKTKPREEQYNSTYRVVSVLTVLHQDWLNGKEYKCKVSNKALPKPIEKTISKAKGQPREPQVYTLPPSREEMTKNQVSLTCLVKGFYPSDIAVEWESNGQPENNYKTTPMVLDSDGSFFLYSKLTVDKSRWQQGNVFSCSVMHEALHNHYTQKSLSLSP light: DIVMTQSPATLSLSPGERATLSCTSSQSVYHANWLSWFQQKPGQPPKLLIYWASTLAYGVPSRFSGSGSGTDFTLTISSLQPEDAATYYCAGGYGGGRYAFGQGTKVEIKRTVAAPSVFIFPPSDEQLKSGTASVVCLLNNFYPREAKVQWKVDNALQSGNSQESVTEQDSKDSTYSLSSTLTLSKADYEKHKVYACEVTHQGLSSPVTKSFNRGEC | 3600 | 1100 | 870 | 1.4 | 5.1 | 4.3 | 1.3 | 9.4 |
| M103205H795-MY205 / M103202L889-SK1 (antibody, human IgG1, kappa, CH with G236N/H268D/Q295L/A330K against SG1 (EU numbering); also called MS1032LO06-MY205) heavy: QVTLKESGPVLVKPTETLTLTCTVSGIDLSHDDISWVRQAPGKGLEWVGIISYAGSTYYASWAKGRLTISKDTSKNQVVLTMTNMDPVDTATYYCARGVPAYSHGGDLWGQGTLVTVSSASTKGPSVFPLAPSSKSTSGGTAALGCLVKDYFPEPVTVSWNSGALTSGVHTFPAVLQSSGLYSLSSVVTVPSSSLGTQTYICNVNHKPSNTKVDKKVEPKSCDKTHTCPPCPAPELLNGPSVFLFPPKPKDTLMISRTPEVTCVVVDVSDEDPEVKFNWYVDGVEVHNAKTKPREELYNSTYRVVSVLTVLHQDWLNGKEYKCKVSNKALPKPIEKTISKAKGQPREPQVYTLPPSREEMTKNQVSLTCLVKGFYPSDIAVEWESNGQPENNYKTTPPVLDSDGSFFLYSKLTVDKSRWQQGNVFSCSVMHEALHNHYTQKSLSLSP light: DIVMTQSPATLSLSPGERATLSCTSSQSVYHANWLSWFQQKPGQPPKLLIYWASTLAYGVPSRFSGSGSGTDFTLTISSLQPEDAATYYCAGGYGGGRYAFGQGTKVEIKRTVAAPSVFIFPPSDEQLKSGTASVVCLLNNFYPREAKVQWKVDNALQSGNSQESVTEQDSKDSTYSLSSTLTLSKADYEKHKVYACEVTHQGLSSPVTKSFNRGEC | 3000 | 900 | 1300 | 1.5 | 7.2 | 4.6 | 0.8 | 8.2 |
